{"source": "patent US20070122422A1", "about": "“Sodium-independent small neutral amino acid transporter transporting L- and D- amino acids” (Japan Science and Technology Corporation, priority 2000, published 2007)", "proteins": {"B1": {"name": "asc-1 of mouse (co-expressed with 4F2hc of mouse) (Mus musculus) (protein)", "chain": "MRRDSDMASHIQQPGGHGNPGPAPSPSPGPGPGPGASERVALKKEIGLVSACTIIIGNIIGSGIFISPKGVLEHSGSVGLALFVWVLGGGVTALGSLCYAELGVAIPKSGGDYAYVTEIFGGLAGFLLLWSAVLIMYPTSLAVISMTFSNYVLQPVFPNCIPPATASRVLSMACLMLLTWVNSSSVRWATRIQVIFTGGKLLALSLIITVGFVQIFQGHFEELRPTNAFAFWMTPSVGHLALAFLQGSFAFSGWNFLNYVTEELVDPRKNLPRAIFISIPLVTFVYTFTNVAYFTAMSPQELLSSNAVAVTFGEKLLGYFSWVMPVSVALSTFGGINGYLFTSSRLCFSGAREGHLPSFLAMIHVRRCTPIPALLVCCGATAVIMLVGDTYTLINYVSFINYLCYGVTILGLLVLRWRRPALHRPIKVNLLVPVVYLVFWAFLLVFSFISEPMVCGVGIIIILTGVPIFFLGVFWRSKPKCVHRFTESMTRWGQELCFVVYPQGSLEEEENGPMGQPSPLPITDKPLKTQ", "notes": "expressed in transfected cells; host or cells: Xenopus oocytes injected with cRNA"}}, "conditions_in_all_cases": "other: oocytes with mouse asc-1 and 4F2hc cRNA; Na+-free uptake solution; pH 7.4", "key": {"[1]": {"substrate": "N[C@@H](Cc1ccccc1)C(=O)O", "assay": "Michaelis-Menten kinetic test of substrate incorporation by Xenopus oocytes co-expressing asc-1 and 4F2hc", "format": "cell-based", "protocol": "(§1) Into oocytes were injected 12 ng of asc-1 gene cRNA of mouse, 13 ng of 4F2hc gene cRNA of mouse or 12 ng asc-1 gene cRNA of mouse/13 ng of 4F2hc gene cRNA of mouse to express followed by incubating for 3 days. […] Thus, the oocytes were allowed to stand for 30 minutes in a Na^+-free uptake solution [100 mM choline chloride, 2 mM potassium chloride, 1.8 mM calcium chloride, 1 mM magnesium chloride, 5 mM HEPES; pH 7.4] containing ^14C-alanine (100 μM) as a substrate and the rate of the substrate incorporated into the cells was measured by way of counting the radioactivity incorporated thereinto.\n(§2) A Michaelis-Menten kinetic test was carried out for a sodium-independent small neutral amino acid transporter asc-1 which transports L- and D-amino acids. By checking the changes in the rate of incorporation of alanine due to the difference in concentration of the alanine substrate, the Michaelis-Menten kinetic test of asc-1 was carried out.\n(§3) An experiment for the incorporation of alanine was carried out according to the method mentioned in the above Example 2(1) using the oocytes into which both asc-1 gene cRNA of mouse and 4F2hc gene cRNA of mouse were injected.\n(§4) With regard to amino acids other than alanine which were used as substrates, a Michaelis-Menten kinetic was carried out as well in the same manner whereupon Km values and Vmax values were calculated."}, "[2]": {"substrate": "N[C@@H](Cc1c[nH]cn1)C(=O)O", "assay": "Michaelis-Menten kinetic test of substrate incorporation by Xenopus oocytes co-expressing asc-1 and 4F2hc", "format": "cell-based", "protocol": "as §1, §2, §3, §4"}, "[3]": {"substrate": "N[C@@H](CO)C(=O)O", "assay": "Michaelis-Menten kinetic test of substrate incorporation by Xenopus oocytes co-expressing asc-1 and 4F2hc", "format": "cell-based", "protocol": "as §1, §2, §3, §4"}, "[4]": {"substrate": "N[C@H](CO)C(=O)O", "assay": "Michaelis-Menten kinetic test of substrate incorporation by Xenopus oocytes co-expressing asc-1 and 4F2hc", "format": "cell-based", "protocol": "as §1, §2, §3, §4"}, "[5]": {"substrate": "N[C@@H](CS)C(=O)O", "assay": "Michaelis-Menten kinetic test of substrate incorporation by Xenopus oocytes co-expressing asc-1 and 4F2hc", "format": "cell-based", "protocol": "as §1, §2, §3, §4"}, "[6]": {"substrate": "CC(C)C[C@H](N)C(=O)O", "assay": "Michaelis-Menten kinetic test of substrate incorporation by Xenopus oocytes co-expressing asc-1 and 4F2hc", "format": "cell-based", "protocol": "as §1, §2, §3, §4"}, "[7]": {"substrate": "CC(C)(N)C(=O)O", "assay": "Michaelis-Menten kinetic test of substrate incorporation by Xenopus oocytes co-expressing asc-1 and 4F2hc", "format": "cell-based", "protocol": "as §1, §2, §3, §4"}, "[8]": {"substrate": "CC(C)[C@H](N)C(=O)O", "assay": "Michaelis-Menten kinetic test of substrate incorporation by Xenopus oocytes co-expressing asc-1 and 4F2hc", "format": "cell-based", "protocol": "as §1, §2, §3, §4"}, "[9]": {"substrate": "CC[C@H](C)[C@H](N)C(=O)O", "assay": "Michaelis-Menten kinetic test of substrate incorporation by Xenopus oocytes co-expressing asc-1 and 4F2hc", "format": "cell-based", "protocol": "as §1, §2, §3, §4"}, "[10]": {"substrate": "CSCC[C@H](N)C(=O)O", "assay": "cells, lysate or membranes"}, "[11]": {"substrate": "NCC(=O)O", "assay": "cells, lysate or membranes"}, "[12]": {"substrate": "C[C@@H](N)C(=O)O", "assay": "cells, lysate or membranes"}, "[13]": {"substrate": "C[C@@H](O)[C@H](N)C(=O)O", "assay": "cells, lysate or membranes"}, "[14]": {"substrate": "C[C@H](N)C(=O)O", "assay": "cells, lysate or membranes"}, "[15]": {"substrate": "NCCC(=O)O", "assay": "cells, lysate or membranes"}}, "data": [{"protein": "B1", "values": [{"measurement": "Km", "setting": "[1]", "value": 464, "unit": "µM"}, {"measurement": "Km", "setting": "[2]", "value": 368, "unit": "µM"}, {"measurement": "Km", "setting": "[3]", "value": 11.3, "unit": "µM"}, {"measurement": "Km", "setting": "[4]", "value": 52.0, "unit": "µM"}, {"measurement": "Km", "setting": "[5]", "value": 23.7, "unit": "µM"}, {"measurement": "Km", "setting": "[6]", "value": 245, "unit": "µM"}, {"measurement": "Km", "setting": "[7]", "value": 22.7, "unit": "µM"}, {"measurement": "Km", "setting": "[8]", "value": 112, "unit": "µM"}, {"measurement": "Km", "setting": "[9]", "value": 160, "unit": "µM"}, {"measurement": "Km", "setting": "[10]", "value": 139, "unit": "µM"}, {"measurement": "Km", "setting": "[11]", "value": 7.8, "unit": "µM"}, {"measurement": "Km", "setting": "[12]", "value": 100, "unit": "µM"}, {"measurement": "Km", "setting": "[13]", "value": 19.3, "unit": "µM"}, {"measurement": "Km", "setting": "[14]", "value": "23.0 ± 5.1", "unit": "µM"}, {"measurement": "Km", "setting": "[15]", "value": 281, "unit": "µM"}]}]}
